Laboratory results taken from patent publication US11419921B2, “Methods of treating neurological disorders” (EnClear Therapies, Inc., priority 2018, dated 2022).

Experiments:
iCell® motor neurons = assay: Toxicity of (GR)10, untreated or protease-treated, on iCell motor neurons; assay type: cell-based; details: (GR)10 concentrations of 25, 50 and 100 μM
Method: 200 μM of (GR)10 were diluted in human cerebrospinal fluid (CSF) and 400 μL were applied to each immobilized proteases. The reaction was incubated 5 minutes at room temperature with end-to-end mixing. Columns were spun down 1 minute at 1,000 Xg to recover digested GR dipeptides. Columns were washed with 12 resin volumes of PBS. The procedure was repeated with 60 minutes digestion time. 100 μL of each samples were transferred to a clean tube, flash-frozen and subsequently used for LC/MS quantification of GR repeats of different lengths. The remaining 300 μL of each samples were flash-frozen and used to assess neuron toxicity.
300 μL of CSF were applied to each immobilized proteases and incubated 60 minutes at room temperature with end-to-end mixing. Columns were spun down 1 minute at 1,000 Xg to recover treated CSF. Samples were flash-frozen and subsequently used to test neuron toxicity.
This example describes the reduced toxicity of (GR)10 on in vitro neuronal cells by digestion of (GR)10 with proteases.

(GR)10 = assay: Cleavage of (GR)10 by commercial immobilized trypsin (agarose resin) in PBS; assay type: biochemical; details: (GR)10 50 μM
Method: • Immobilized TPCK-trypsin on agarose resin; ThermoFisher Cat #20230 Lot #TA264999; Activity: 555 TAME units/mL of gel; the resin was washed with PBS • TPCK-trypsin; ThermoFisher Cat #20233 Lot #SB241185; Activity: 308 TAME units/mg of protein • NOTE: One TAME unit is equal to 1 μmole of TAME (p-toluenesulfonyl-L-arginine methyl ester in the presence of Ca2+) hydrolyzed/min at pH 8.2, 25° C. (One TAME unit=19.2 National Formulatory units=57.5 BAEE units
110 μL of 50 μM (GR)10 dipeptide repeats prepared in PBS was added to immobilized trypsin in 0.8 mL centrifuge columns and incubated for the prescribed time at room temperature with end-to-end mixing resin. Columns were spun down 1 minute at 1,000 Xg to recover digested GR dipeptides. Columns were washed with 110 μL of PBS to increase (GR)10 recovery. 100 μL of each samples were transferred to a new tube and 5 μL of 10% TFA followed by 300 μL of Dilution Solution were added. The reaction mixtures were analyzed by LC/MS to determine the concentration of GR repeats of different lengths.

[1] = 1 TAME unit = 1 μmole TAME hydrolyzed/min at pH 8.2, 25° C.; cited from earlier work

B1: resins having immobilized clostripain: clostripain immobilized on agarose resin (protein, UniProt P09870 51-181; P09870 191-526, looked up)
Clostripain light chain: NKNQKVTIMYYCDADNNLEGSLLNDIEEMKTGYKDSPNLNLIALVDRSPRYSSDEKVLGEDFSDTRLYKIEHNKANRLDGKNEFPEISTTSKYEANMGDPEVLKKFIDYCKSNYEADKYVLIMANHGGGAR
Clostripain heavy chain: AICWDDSNLDKNGEADCLYMGEISDHLTEKQSVDLLAFDACLMGTAEVAYQYRPGNGGFSADTLVASSPVVWGPGFKYDKIFDRIKAGGGTNNEDDLTLGGKEQNFDPATITNEQLGALFVEEQRDSTHANGRYDQHLSFYDLKKAESVKRAIDNLAVNLSNENKKSEIEKLRGSGIHTDLMHYFDEYSEGEWVEYPYFDVYDLCEKINKSENFSSKTKDLASNAMNKLNEMIVYSFGDPSNNFKEGKNGLSIFLPNGDKKYSTYYTSTKIPHWTMQSWYNSIDTVKYGLNPYGKLSWCKDGQDPEINKVGNWFELLDSWFDKTNDVTGGVNHYQW
modifications: immobilized on agarose resin
In the case of B1, the “Effect of protease treatment of (GR)10 on (GR)10 toxicity” value (iCell® motor neurons) is reported as “abrogation of (GR)10 toxicity”.

B2: Immobilized trypsin: Immobilized TPCK-trypsin on agarose resin; ThermoFisher Cat #20230 (protein, UniProt P00760 24-246, looked up)
Serine protease 1: IVGGYTCGANTVPYQVSLNSGYHFCGGSLINSQWVVSAAHCYKSGIQVRLGEDNINVVEGNEQFISASKSIVHPSYNSNTLNNDIMLIKLKSAASLNSRVASISLPTSCASAGTQCLISGWGNTKSSGTSYPDVLKCLKAPILSDSSCKSAYPGQITSNMFCAGYLEGGKDSCQGDSGGPVVCSGKLQGIVSWGSGCAQKNKPGVYTKVCNYVSWIKQTIASN
modifications: TPCK-treated, immobilized on agarose resin
For B2, the “(GR)1 concentration” value ((GR)10; 0.625 TAME Units, 0 min) was “BLQ”, the “(GR)2 concentration” value ((GR)10; 0.625 TAME Units, 0 min) was “BLQ” and the “(GR)4 concentration” value ((GR)10; 0.625 TAME Units, 0 min) was 0.1 µM. The “(GR)6 concentration” value ((GR)10; 0.625 TAME Units, 0 min) was “BLQ”, the “(GR)8 concentration” value ((GR)10; 0.625 TAME Units, 0 min) was 1.0 µM and the “(GR)10 concentration” value ((GR)10; 0.625 TAME Units, 0 min) was 68.4 µM. For the same molecule, the “(GR)1 concentration” value ((GR)10; 0.625 TAME Units, 5 min) was 248.4 µM, the “(GR)2 concentration” value ((GR)10; 0.625 TAME Units, 5 min) was 114.9 µM and the “(GR)4 concentration” value ((GR)10; 0.625 TAME Units, 5 min) was 0.3 µM. For the same molecule, the “(GR)6 concentration” value ((GR)10; 0.625 TAME Units, 5 min) was 0.1 µM, the “(GR)8 concentration” value ((GR)10; 0.625 TAME Units, 5 min) was “BLQ” and the “(GR)10 concentration” value ((GR)10; 0.625 TAME Units, 5 min) was 3.1 µM. For the same molecule, the “(GR)1 concentration” value ((GR)10; 0.625 TAME Units, 10 min) was 307.0 µM, the “(GR)2 concentration” value ((GR)10; 0.625 TAME Units, 10 min) was 89.6 µM and the “(GR)4 concentration” value ((GR)10; 0.625 TAME Units, 10 min) was 0.2 µM. The “(GR)6 concentration” value ((GR)10; 0.625 TAME Units, 10 min) was “BLQ”, the “(GR)8 concentration” value ((GR)10; 0.625 TAME Units, 10 min) was “BLQ” and the “(GR)10 concentration” value ((GR)10; 0.625 TAME Units, 10 min) was 2.1 µM. The “(GR)1 concentration” value ((GR)10; 0.625 TAME Units, 30 min) was 411.7 µM, the “(GR)2 concentration” value ((GR)10; 0.625 TAME Units, 30 min) was 11.8 µM and the “(GR)4 concentration” value ((GR)10; 0.625 TAME Units, 30 min) was 0.1 µM. The “(GR)6 concentration” value ((GR)10; 0.625 TAME Units, 30 min) was “BLQ”, the “(GR)8 concentration” value ((GR)10; 0.625 TAME Units, 30 min) was “BLQ” and the “(GR)10 concentration” value ((GR)10; 0.625 TAME Units, 30 min) was 0.6 µM. For the same molecule, the “(GR)1 concentration” value ((GR)10; 0.625 TAME Units, 60 min) was 465.4 µM, the “(GR)2 concentration” value ((GR)10; 0.625 TAME Units, 60 min) was 5.6 µM and the “(GR)4 concentration” value ((GR)10; 0.625 TAME Units, 60 min) was “BLQ”. For the same molecule, the “(GR)6 concentration” value ((GR)10; 0.625 TAME Units, 60 min) was “BLQ”, the “(GR)8 concentration” value ((GR)10; 0.625 TAME Units, 60 min) was “BLQ” and the “(GR)10 concentration” value ((GR)10; 0.625 TAME Units, 60 min) was 1.0 µM. For the same molecule, the “(GR)1 concentration” value ((GR)10; 0.625 TAME Units, 120 min) was 385.8 µM, the “(GR)2 concentration” value ((GR)10; 0.625 TAME Units, 120 min) was 1.0 µM and the “(GR)4 concentration” value ((GR)10; 0.625 TAME Units, 120 min) was “BLQ”. The “(GR)6 concentration” value ((GR)10; 0.625 TAME Units, 120 min) was “BLQ”, the “(GR)8 concentration” value ((GR)10; 0.625 TAME Units, 120 min) was “BLQ” and the “(GR)10 concentration” value ((GR)10; 0.625 TAME Units, 120 min) was 0.1 µM. The “(GR)1 concentration” value ((GR)10; 6.25 TAME Units, 0 min) was 0.2 µM, the “(GR)2 concentration” value ((GR)10; 6.25 TAME Units, 0 min) was 0.2 µM and the “(GR)4 concentration” value ((GR)10; 6.25 TAME Units, 0 min) was 0.1 µM. The “(GR)6 concentration” value ((GR)10; 6.25 TAME Units, 0 min) was “BLQ”, the “(GR)8 concentration” value ((GR)10; 6.25 TAME Units, 0 min) was “BLQ” and the “(GR)10 concentration” value ((GR)10; 6.25 TAME Units, 0 min) was 32.7 µM. The “(GR)1 concentration” value ((GR)10; 6.25 TAME Units, 5 min) was 391.0 µM, the “(GR)2 concentration” value ((GR)10; 6.25 TAME Units, 5 min) was 1.2 µM and the “(GR)4 concentration” value ((GR)10; 6.25 TAME Units, 5 min) was “BLQ”. The “(GR)6 concentration” value ((GR)10; 6.25 TAME Units, 5 min) was “BLQ”, the “(GR)8 concentration” value ((GR)10; 6.25 TAME Units, 5 min) was “BLQ” and the “(GR)10 concentration” value ((GR)10; 6.25 TAME Units, 5 min) was 0.9 µM. For the same molecule, the “(GR)1 concentration” value ((GR)10; 6.25 TAME Units, 10 min) was 505.5 µM, the “(GR)2 concentration” value ((GR)10; 6.25 TAME Units, 10 min) was 3.8 µM and the “(GR)4 concentration” value ((GR)10; 6.25 TAME Units, 10 min) was 0.1 µM. For the same molecule, the “(GR)6 concentration” value ((GR)10; 6.25 TAME Units, 10 min) was “BLQ”, the “(GR)8 concentration” value ((GR)10; 6.25 TAME Units, 10 min) was “BLQ” and the “(GR)10 concentration” value ((GR)10; 6.25 TAME Units, 10 min) was 1.6 µM. The “(GR)1 concentration” value ((GR)10; 6.25 TAME Units, 30 min) was 480.2 µM, the “(GR)2 concentration” value ((GR)10; 6.25 TAME Units, 30 min) was 0.2 µM and the “(GR)4 concentration” value ((GR)10; 6.25 TAME Units, 30 min) was “BLQ”. For the same molecule, the “(GR)6 concentration” value ((GR)10; 6.25 TAME Units, 30 min) was “BLQ”, the “(GR)8 concentration” value ((GR)10; 6.25 TAME Units, 30 min) was “BLQ” and the “(GR)10 concentration” value ((GR)10; 6.25 TAME Units, 30 min) was 0.9 µM. The “(GR)1 concentration” value ((GR)10; 6.25 TAME Units, 60 min) was 409.6 µM, the “(GR)2 concentration” value ((GR)10; 6.25 TAME Units, 60 min) was 0.1 µM and the “(GR)4 concentration” value ((GR)10; 6.25 TAME Units, 60 min) was “BLQ”. For the same molecule, the “(GR)6 concentration” value ((GR)10; 6.25 TAME Units, 60 min) was “BLQ”, the “(GR)8 concentration” value ((GR)10; 6.25 TAME Units, 60 min) was “BLQ” and the “(GR)10 concentration” value ((GR)10; 6.25 TAME Units, 60 min) was 0.2 µM. The “(GR)1 concentration” value ((GR)10; 6.25 TAME Units, 120 min) was 396.0 µM, the “(GR)2 concentration” value ((GR)10; 6.25 TAME Units, 120 min) was 0.2 µM and the “(GR)4 concentration” value ((GR)10; 6.25 TAME Units, 120 min) was “BLQ”. The “(GR)6 concentration” value ((GR)10; 6.25 TAME Units, 120 min) was 0.1 µM, the “(GR)8 concentration” value ((GR)10; 6.25 TAME Units, 120 min) was “BLQ” and the “(GR)10 concentration” value ((GR)10; 6.25 TAME Units, 120 min) was 0.1 µM. For the same molecule, the Activity [1] was 555 TAME units/mL of gel.

B3: TPCK-trypsin: TPCK-trypsin; ThermoFisher Cat #20233 (protein, UniProt P00760 24-246, looked up)
Serine protease 1: IVGGYTCGANTVPYQVSLNSGYHFCGGSLINSQWVVSAAHCYKSGIQVRLGEDNINVVEGNEQFISASKSIVHPSYNSNTLNNDIMLIKLKSAASLNSRVASISLPTSCASAGTQCLISGWGNTKSSGTSYPDVLKCLKAPILSDSSCKSAYPGQITSNMFCAGYLEGGKDSCQGDSGGPVVCSGKLQGIVSWGSGCAQKNKPGVYTKVCNYVSWIKQTIASN
modifications: TPCK-treated
In the case of B3, the Activity [1] is listed as 308 TAME units/mg of protein.
